Tests used:
[1] = biological target: T1, MBP-FCARRM-His (RRM domains of FCA) (UniProt O04425 1-343); assay: EMSA; 2 nM probe, 600 nM protein; EMSA: 10 mM HEPES-KOH pH 7.3, 20 mM KCl, 1 mM MgCl2, 1 mM DTT, 5% glycerol, 0.1 ug/uL tRNA, room temperature 30 min (protein eluted with 200 mM imidazole); ITC: 10 mM HEPES-KOH pH 8.0, 150 mM NaCl, 200 mM imidazole, 25 C; conditions: protein: recombinant; tags: MBP (pMAL-c2x), 6xHis; label: Biotin at both ends
T1 sequence: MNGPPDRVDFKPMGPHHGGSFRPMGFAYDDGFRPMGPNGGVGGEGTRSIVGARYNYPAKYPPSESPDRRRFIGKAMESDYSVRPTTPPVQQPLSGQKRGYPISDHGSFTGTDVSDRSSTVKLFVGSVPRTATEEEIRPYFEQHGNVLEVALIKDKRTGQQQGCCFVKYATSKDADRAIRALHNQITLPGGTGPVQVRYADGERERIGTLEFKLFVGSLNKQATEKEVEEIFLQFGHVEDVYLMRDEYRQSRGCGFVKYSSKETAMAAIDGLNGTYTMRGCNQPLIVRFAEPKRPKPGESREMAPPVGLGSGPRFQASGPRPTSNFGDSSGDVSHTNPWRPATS

[2] = biological target: T2, MBP-FPARRM-His (three RRM domains of FPA) (Arabidopsis thaliana, UniProt Q8LPQ9 1-307); assay: as above; conditions: protein: recombinant; tags: MBP (pMAL-c2x), 6xHis; label: Biotin at both ends
T2 sequence: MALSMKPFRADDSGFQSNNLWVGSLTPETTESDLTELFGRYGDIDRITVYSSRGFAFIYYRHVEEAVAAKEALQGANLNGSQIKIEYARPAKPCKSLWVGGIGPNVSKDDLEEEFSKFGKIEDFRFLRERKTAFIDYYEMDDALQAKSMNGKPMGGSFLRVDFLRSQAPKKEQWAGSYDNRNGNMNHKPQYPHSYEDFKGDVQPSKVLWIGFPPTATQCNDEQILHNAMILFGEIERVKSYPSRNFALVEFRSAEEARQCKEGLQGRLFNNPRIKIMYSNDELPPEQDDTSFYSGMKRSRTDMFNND

[3] = biological target: T2, MBP-FPARRM-His (three RRM domains of …); assay: ITC; 25 C, 150 mM NaCl, pH 8.0; EMSA: 10 mM HEPES-KOH pH 7.3, 20 mM KCl, 1 mM MgCl2, 1 mM DTT, 5% glycerol, 0.1 ug/uL tRNA, room temperature 30 min (protein eluted with 200 mM imidazole); ITC: 10 mM HEPES-KOH pH 8.0, 150 mM NaCl, 200 mM imidazole, 25 C; conditions: protein: recombinant; tags: MBP (pMAL-c2x), 6xHis
[4] = biological target: T1, MBP-FCARRM-His (RRM domains of FCA); assay: competition; unlabeled GU-rich competes labeled GU-rich probe; EMSA: 10 mM HEPES-KOH pH 7.3, 20 mM KCl, 1 mM MgCl2, 1 mM DTT, 5% glycerol, 0.1 ug/uL tRNA, room temperature 30 min (protein eluted with 200 mM imidazole); ITC: 10 mM HEPES-KOH pH 8.0, 150 mM NaCl, 200 mM imidazole, 25 C; conditions: protein: recombinant; tags: MBP (pMAL-c2x), 6xHis
[5] = biological target: T2, MBP-FPARRM-His (three RRM domains of …); assay: EMSA; 2 nM probe, 2000 nM protein; EMSA: 10 mM HEPES-KOH pH 7.3, 20 mM KCl, 1 mM MgCl2, 1 mM DTT, 5% glycerol, 0.1 ug/uL tRNA, room temperature 30 min (protein eluted with 200 mM imidazole); ITC: 10 mM HEPES-KOH pH 8.0, 150 mM NaCl, 200 mM imidazole, 25 C; conditions: protein: recombinant; tags: MBP (pMAL-c2x), 6xHis; label: Biotin at both ends

Binder: GUUGUUUUGUUUGUUGUUUUGUUU (ssRNA) [GU-rich probe (EMSA, biotin)]
- binding result [1]: binds
- binding result [2]: no binding

Binder: GUUGUUUUGUUUGUUGUUUUGUUU (ssRNA) [GU-rich RNA (unlabeled; ITC and competitor)]
- binding result [3]: no binding
- binding result [4]: binds

Binder: GAAGAGAAGAAGAGAAGAAGAGAA (ssRNA) [GA-rich RNA (unlabeled; ITC and competitor)]
- Kd [3]: ~20 µM

Binder: UUCUCUUCUUCUCUUCUUCUCUUC (ssRNA) [UC-rich probe (antisense of GA-rich; EMSA, biotin)]
- binding result [5]: no binding

— article PMC12591160, “Polyadenylation Complex CFII Recognizes Downstream Cis‐element for Pre‐mRNA Polyadenylation Through Interaction with an RNA‐Binding Protein in Arabidopsis”
